In publication PMC4585563, “Small angle X-ray scattering studies of CTNNBL1 dimerization and CTNNBL1/CDC5L complex” (Scientific Reports, 2015):
Numbering of substitutions follows the chain as printed. Names may count otherwise.

B1: CDC5L^141-377 (domain or fragment, human, UniProt Q99459 141-377, looked up)
chain: PIDMDEDELEMLSEARARLANTQGKKAKRKAREKQLEEARRLAALQKRRELRAAGIEIQKKRKRKRGVDYNAEIPFEKKPALGFYDTSEENYQALDADFRKLRQQDLDGELRSEKEGRDRKKDKQHLKRKKESDLPSAILQTSGVSEFTKKRSKLVLPAPQISDAELQEVVKVGQASEIARQTAEESGITNSASSTLLSEYNVTNNSVALRTPRTPASQDRILQEAQNLMALTNVDT
notes: CDC5L of the human hPrp19/CDC5L complex, residues 141-377 of the N-terminal domain; holds NLS3 (residues 200-206: KKRKRKR); cloned into pET-30a(+); also called 6xHis-tagged CDC5L 141-377; source: E. coli, purified as CTNNBL1 with 300 mM NaCl in the buffers, without TEV protease
B2: CDC5L^141-235 (domain or fragment, human, UniProt Q99459 141-235, looked up)
chain: PIDMDEDELEMLSEARARLANTQGKKAKRKAREKQLEEARRLAALQKRRELRAAGIEIQKKRKRKRGVDYNAEIPFEKKPALGFYDTSEENYQAL
notes: CDC5L of the human hPrp19/CDC5L complex, residues 141-235; holds NLS3 (residues 200-206: KKRKRKR); cloned into pPosKJ; pPosKJ adds 6xHis and VHb, both removed only by TEV protease; the His-tagged proteins were made without TEV, so VHb should still be on the chain in the pull-down; also called 6xHis-tagged CDC5L 141-235; source: E. coli, purified as CTNNBL1 with 300 mM NaCl in the buffers, without …
B3: CDC5L^141-285 (domain or fragment, human, UniProt Q99459 141-285, looked up)
chain: PIDMDEDELEMLSEARARLANTQGKKAKRKAREKQLEEARRLAALQKRRELRAAGIEIQKKRKRKRGVDYNAEIPFEKKPALGFYDTSEENYQALDADFRKLRQQDLDGELRSEKEGRDRKKDKQHLKRKKESDLPSAILQTSGV
notes: CDC5L of the human hPrp19/CDC5L complex, residues 141-285; holds NLS3 (residues 200-206: KKRKRKR); cloned into pET-30a(+); also called 6xHis-tagged CDC5L 141-285; source: E. coli, purified as CTNNBL1 with 300 mM NaCl in the buffers, without TEV protease
B4: CTNNBL1 (residues 77-563), wild type (domain or fragment, human, UniProt Q8WYA6 77-563, looked up)
chain: LDESSVKKMILTFEKRSYKNQELRIKFPDNPEKFMESELDLNDIIQEMHVVATMPDLYHLLVELNAVQSLLGLLGHDNTDVSIAVVDLLQELTDIDTLHESEEGAEVLIDALVDGQVVALLVQNLERLDESVKEEADGVHNTLAIVENMAEFRPEMCTEGAQQGLLQWLLKRLKAKMPFDANKLYCSEVLAILLQDNDENRELLGELDGIDVLLQQLSVFKRHNPSTAEEQEMMENLFDSLCSCLMLSSNRERFLKGEGLQLMNLMLREKKISRSSALKVLDHAMIGPEGTDNCHKFVDILGLRTIFPLFMKSPRKIKKVGTTEKEHEEHVCSILASLLRNLRGQQRTRLLNKFTENDSEKVDRLMELHFKYLGAMQVADKKIEGEKHDMVRRGEIIDNDTEEEFYLRRLDAGLFVLQHICYIMAEICNANVPQIRQRVHQILNMRGSSIKIVRHIIKEYAENIGDGRSPEFRENEQKRILGLLENF
notes: human CTNNBL1, residues 77-563, amplified from a human cDNA library; Dimer by SAXS at 0-200 mM NaCl and by SEC at 150 mM NaCl; monomer at 300-400 mM NaCl; also called native CTNNBL1; wild-type CTNNBL1; source: E. coli BL21(DE3)-T1R, purified (Ni-NTA, TEV protease, Ni-NTA, Superdex200); not shown: 6xHis, N-terminal, cleaved; VHb (bacterial hemoglobin), N-terminal, cleaved
B5: CTNNBL1^G148R (domain or fragment, human, UniProt Q8WYA6 77-563, looked up)
chain: B4 chain with G72R
notes: human CTNNBL1, residues 77-563, point mutant made by site-directed mutagenesis; source: E. coli, purified as wild-type CTNNBL1; not shown: 6xHis, N-terminal, cleaved; VHb (bacterial hemoglobin), N-terminal, cleaved
B6: CTNNBL1^Q192R (domain or fragment, human, UniProt Q8WYA6 77-563, looked up)
chain: B4 chain with Q116R
notes: as for B5
B7: CTNNBL1^E278A (domain or fragment, human, UniProt Q8WYA6 77-563, looked up)
chain: B4 chain with E202A
notes: as for B5
B8: CTNNBL1^L87R (domain or fragment, human, UniProt Q8WYA6 77-563, looked up)
chain: B4 chain with L11R
notes: as for B5
B9: CTNNBL1^E282A (domain or fragment, human, UniProt Q8WYA6 77-563, looked up)
chain: B4 chain with E206A
notes: as for B5
B10: CTNNBL1^Q199R (domain or fragment, human, UniProt Q8WYA6 77-563, looked up)
chain: B4 chain with Q123R
notes: as for B5
B11: CTNNBL1^I101R (domain or fragment, human, UniProt Q8WYA6 77-563, looked up)
chain: B4 chain with I25R
notes: as for B5
B12: CTNNBL1^L87R/I101R (domain or fragment, human, UniProt Q8WYA6 77-563, looked up)
chain: B4 chain with L11R, I25R
notes: human CTNNBL1, residues 77-563, double-point mutant (capping region); also called capping region mutant; source: E. coli, purified as wild-type CTNNBL1; not shown: 6xHis, N-terminal, cleaved; VHb (bacterial hemoglobin), N-terminal, cleaved
B13: CTNNBL1^G148R/Q192R/Q199R (domain or fragment, human, UniProt Q8WYA6 77-563, looked up)
chain: B4 chain with G72R, Q116R, Q123R
notes: human CTNNBL1, residues 77-563, triple-point mutant (ARM I and ARM II); also called ARM I and ARM II mutant; source: E. coli, purified as wild-type CTNNBL1; not shown: 6xHis, N-terminal, cleaved; VHb (bacterial hemoglobin), N-terminal, cleaved
B14: CTNNBL1^Q238A/E278A/E282A (domain or fragment, human, UniProt Q8WYA6 77-563, looked up)
chain: B4 chain with Q162A, E202A, E206A
notes: human CTNNBL1, residues 77-563, triple-point mutant (ARM III and ARM IV); also called Arm III and Arm IV mutant; source: E. coli, purified as wild-type CTNNBL1; not shown: 6xHis, N-terminal, cleaved; VHb (bacterial hemoglobin), N-terminal, cleaved
B15: CDC5L^197-285 (domain or fragment, human, UniProt Q99459 197-285, looked up)
chain: EIQKKRKRKRGVDYNAEIPFEKKPALGFYDTSEENYQALDADFRKLRQQDLDGELRSEKEGRDRKKDKQHLKRKKESDLPSAILQTSGV
notes: CDC5L of the human hPrp19/CDC5L complex, residues 197-285; holds NLS3 (residues 200-206: KKRKRKR); cloned into pPosKJ; pPosKJ adds 6xHis and VHb, both removed only by TEV protease; the His-tagged proteins were made without TEV, so VHb should still be on the chain in the pull-down; also called 6xHis-tagged CDC5L 197-285; source: E. coli, purified as CTNNBL1 with 300 mM NaCl in the buffers, without …

Key:
[1] = target: B4; experiment: pull-down; 6xHis-tagged CDC5L truncations mixed with untagged CTNNBL1 in 50 mM Tris-HCl pH 8.0, 300 mM NaCl, dialysed against 50 mM Tris-HCl without NaCl at 4 °C overnight, loaded on Ni-NTA resin, washed with 10 mM imidazole, eluted with 300 mM imidazole, SDS-PAGE; details: both partners purified
[2] = target: the molecule itself; experiment: SEC; CDC5L truncations alone; data not shown
[3] = target: the molecule itself; experiment: SAXS; CTNNBL1 alone in solution, 0 mM NaCl, 4 °C, 1.0-5.0 mg/ml; oligomeric state from molecular mass (absolute I(0)), Guinier and p(r) analysis
[4] = target: the molecule itself; experiment: SAXS; CTNNBL1 alone in solution, 100 mM NaCl, 4 °C, 1.0-5.0 mg/ml; oligomeric state from molecular mass (absolute I(0)), Guinier and p(r) analysis
[5] = target: the molecule itself; experiment: SAXS; CTNNBL1 alone in solution, 200 mM NaCl, 4 °C, 1.0-5.0 mg/ml; oligomeric state from molecular mass (absolute I(0)), Guinier and p(r) analysis
[6] = target: the molecule itself; experiment: SEC; Superdex 200 10/300, 500 μl of 2 mg/ml protein, 0.5 ml/min, 40 mM Tris-HCl pH 8.0, 150 mM NaCl; molecular weight from calibration standards

Row | Binder | stoichiometry N [6] | further results
1 | B1 |  | binding result [1]: binds; stoichiometry N [2]: 2
2 | B2 |  | binding result [1]: binds
3 | B3 |  | binding result [1]: binds; stoichiometry N [2]: 2
4 | B4 |  | stoichiometry N [3]: 2; stoichiometry N [4]: 2; stoichiometry N [5]: 2
5 | B5 | 2 | 
6 | B6 | 2 | 
7 | B7 | 2 | 
8 | B8 | 2 | 
9 | B9 | 2 | 
10 | B10 | 2 | 
11 | B11 | 2 | 
12 | B12 | 2 | 
13 | B13 | 2 | 
14 | B14 | 2 | 
15 | B15 |  | binding result [1]: binds
